# Measured values: article PMC7232441 (2020)
# T1: CsTx-13 (Cupiennius salei, UniProt P83919)
# T1 chain 1: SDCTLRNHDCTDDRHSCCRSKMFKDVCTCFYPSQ
# T1 chain 2: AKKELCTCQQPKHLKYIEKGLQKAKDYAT
# B1: CsTx-9 (protein)
# chain: KDDKNCIPKHHECTNDKKNCCKKGLTKMKCKCFTVADAKGATSERCACDSSLLQKFGFTGLHIIKGLF
# B2: CsTx-1 (protein)
# chain: SCIPKHEECTNDKHNCCRKGLFKLKCQCSTFDDESGQPTERCACGRPMGHQAIETGLNIFRGLFKGKKKNKKTK
# Molecular target: T1, CsTx-13
# Test: microscale thermophoresis
row,Binder,Kd
1,B1,0.37 µM
2,B2,0.43 µM
